Assay results: the supplement of paper PMC9233669
Variants at the floor of the assay were thinned out.

Experiments:
biotinyl-Trp-oxazolone = assay: self-aminoacylation, catalytic enhancement (BWO) (fold over background); higher = more active; k-Seq, kA / k0A0; sequences stand for … in GGGAAUGGAUCCACAUCUACGAAUUC…UUCACUGCAGACUUGACGAAGCUG
Outline: (§1)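 The uncatalyzed rate is the low-activity peak of a bimodal Gaussian fit, and catalytic enhancement is median kA divided by it. The kA values came from pseudo-first-order fits, with 1000 bootstraps, of per-sequence fraction reacted measured by streptavidin capture, triplicate qPCR and Illumina sequencing. Mutagenized RNA pools with a 21-nt variable region (0.43 μM) were reacted with each biotinyl-aminoacyl-oxazolone at 2–1250 μM in 50 μL HEPES/NaCl/KCl/MgCl2/CaCl2 buffer with 5% acetonitrile, pH 6.9–7.0, for 90 minutes at room temperature.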

biotinyl-Ile-oxazolone = assay: self-aminoacylation, catalytic enhancement (BIO) (fold over background); higher = more active; k-Seq, kA / k0A0; sequences stand for … in GGGAAUGGAUCCACAUCUACGAAUUC…UUCACUGCAGACUUGACGAAGCUG
Outline: as §1

biotinyl-Met-oxazolone = assay: self-aminoacylation, catalytic enhancement (BMO) (fold over background); higher = more active; k-Seq, kA / k0A0; sequences stand for … in GGGAAUGGAUCCACAUCUACGAAUUC…UUCACUGCAGACUUGACGAAGCUG
Outline: as §1

biotinyl-Leu-oxazolone = assay: self-aminoacylation, catalytic enhancement (BLO) (fold over background); higher = more active; k-Seq, kA / k0A0; sequences stand for … in GGGAAUGGAUCCACAUCUACGAAUUC…UUCACUGCAGACUUGACGAAGCUG
Outline: as §1

biotinyl-Phe-oxazolone = assay: self-aminoacylation, catalytic enhancement (BFO) (fold over background); higher = more active; k-Seq, kA / k0A0; sequences stand for … in GGGAAUGGAUCCACAUCUACGAAUUC…UUCACUGCAGACUUGACGAAGCUG
Outline: as §1

biotinyl-Val-oxazolone = assay: self-aminoacylation, catalytic enhancement (BVO) (fold over background); higher = more active; k-Seq, kA / k0A0; sequences stand for … in GGGAAUGGAUCCACAUCUACGAAUUC…UUCACUGCAGACUUGACGAAGCUG
Outline: as §1

Sequence | self-aminoacylation (biotinyl-Trp-oxazolone) | self-aminoacylation (biotinyl-Ile-oxazolone) | self-aminoacylation (biotinyl-Met-oxazolone) | self-aminoacylation (biotinyl-Leu-oxazolone) | self-aminoacylation (biotinyl-Phe-oxazolone) | self-aminoacylation (biotinyl-Val-oxazolone)
CUACUUCGUACAAUCGGUCUG [Fam1A.1 aminoacylation ribozyme variant] | 0.327 | 0.571 | 0.519 | 0.596 | 0.251 | 0.685
CUACUUCUAACAAGCGGUCUG [Fam1A.1 aminoacylation ribozyme variant] | 0.64 | 0.801 | 0.708 | 0.658 | 0.708 | 0.694
CUACUUCUAACAAUCCGUCUG [Fam1A.1 aminoacylation ribozyme variant] | 0.586 | 0.905 | 0.679 | 0.656 | 0.709 | 0.792
CUACUUCUAACAAUCGGACUG [Fam1A.1 aminoacylation ribozyme variant] | 0.419 | 0.566 | 0.398 | 0.495 | 0.602 | 0.572
CUACUUCUAACAAUCGGUCUG [Fam1A.1 aminoacylation ribozyme variant] | 0.532 | 0.658 | 0.608 | 0.585 | 0.785 | 0.693
CUACUUCUAACAAUCGGUGUG [Fam1A.1 aminoacylation ribozyme variant] | 0.569 | 0.844 | 0.91 | 0.907 | 0.728 | 0.687
CUACUUCUAACCAUCGGUCUG [Fam1A.1 aminoacylation ribozyme variant] | 0.45 | 0.703 | 0.659 | 0.653 | 0.859 | 0.761
CUACUUCUAUCAAUCGGUCUG [Fam1A.1 aminoacylation ribozyme variant] | 0.493 | 0.7 | 0.636 | 0.554 | 0.796 | 0.63
CUACUUGAAACAAACGGUCUG [Fam1A.1 aminoacylation ribozyme variant] | 1.03 | 1.02 | 1.05 | 0.826 | 0.858 | 0.985
CUACUUGAAACAAUCGGGCUG [Fam1A.1 aminoacylation ribozyme variant] | 2.37 | 1.51 | 1.95 | 1.83 | 1.26 | 1.93
CUACUUGAAACAAUCGGUCCG [Fam1A.1 aminoacylation ribozyme variant] | 1.48 | 0.929 | 1.31 | 0.748 | 0.497 | 1.02
CUACUUGAAACGAUCGGUCUG [Fam1A.1 aminoacylation ribozyme variant] | 0.726 | 0.968 | 1.11 | 1.24 | 0.916 | 1.05
CUACUUGAUACAAUCGGUCUG [Fam1A.1 aminoacylation ribozyme variant] | 0.517 | 0.753 | 0.735 | 0.734 | 0.52 | 0.776
CUACUUUAAACAAUCGGACUG [Fam1A.1 aminoacylation ribozyme variant] | 0.809 | 0.901 | 0.874 | 0.759 | 0.698 | 0.757
CUACUUUAAACAAUCGGCCUG [Fam1A.1 aminoacylation ribozyme variant] | 2.02 | 1.2 | 1.24 | 0.974 | 0.942 | 1.03
CUACUUUAAACAAUCGGUCUU [Fam1A.1 aminoacylation ribozyme variant] | 0.6 | 0.888 | 1.09 | 0.738 | 0.805 | 0.885
CUACUUUACACAAUCGGUCUG [Fam1A.1 aminoacylation ribozyme variant] | 0.543 | 0.87 | 0.872 | 0.742 | 0.601 | 0.805
CUACUUUCAACAAUCGGUCUG [Fam1A.1 aminoacylation ribozyme variant] | 10.3 | 0.99 | 0.895 | 1.09 | 14.5 | 1.06
CUACUUUUAACAAUCGGUCUG [Fam1A.1 aminoacylation ribozyme variant] | 0.516 | 0.888 | 0.921 | 0.713 | 0.864 | 0.802
CUAGCUCAAACAAUCGGUCUG [Fam1A.1 aminoacylation ribozyme variant] | 3.09 | 0.817 | 0.776 | 0.742 | 4.58 | 0.914
CUAGUGCAAACAAUCGGUCUG [Fam1A.1 aminoacylation ribozyme variant] | 0.9 | 0.998 | 0.962 | 1.03 | 2.39 | 1
CUAGUUCAAACAAACGGUCUG [Fam1A.1 aminoacylation ribozyme variant] | 0.823 | 0.913 | 0.814 | 0.91 | 0.831 | 0.77
CUAGUUCAAACAACCGGUCUG [Fam1A.1 aminoacylation ribozyme variant] | 0.982 | 1.23 | 1.05 | 0.965 | 0.987 | 1.2
CUAGUUCAAACAGUCGGUCUG [Fam1A.1 aminoacylation ribozyme variant] | 0.759 | 1.04 | 0.947 | 1.12 | 0.551 | 0.945
CUAGUUCAAAGAAUCGGUCUG [Fam1A.1 aminoacylation ribozyme variant] | 1.44 | 0.967 | 1.04 | 1.14 | 1.5 | 0.951
CUAGUUCAAAUAAUCGGUCUG [Fam1A.1 aminoacylation ribozyme variant] | 2.87 | 0.901 | 0.872 | 0.879 | 3.78 | 0.793

Sequence | self-aminoacylation (biotinyl-Trp-oxazolone) | self-aminoacylation (biotinyl-Ile-oxazolone) | self-aminoacylation (biotinyl-Met-oxazolone) | self-aminoacylation (biotinyl-Leu-oxazolone) | self-aminoacylation (biotinyl-Phe-oxazolone) | self-aminoacylation (biotinyl-Val-oxazolone)
CUAGUUUAAACAAUCGGUCUG [Fam1A.1 aminoacylation ribozyme variant] | 0.631 | 0.924 | 0.84 | 0.774 | 0.814 | 0.765
CUAUAUCAAACAAUCGGUCUG [Fam1A.1 aminoacylation ribozyme variant] | 1.01 | 0.752 | 0.561 | 0.638 | 1.62 | 0.634
CUAUUUAAAACAAUCGGUCUG [Fam1A.1 aminoacylation ribozyme variant] | 0.616 | 0.834 | 0.927 | 0.774 | 0.598 | 0.841
CUAUUUCAAACAAACGGUCUG [Fam1A.1 aminoacylation ribozyme variant] | 0.586 | 0.961 | 0.923 | 0.72 | 1.2 | 0.971
CUAUUUCAAACAAUAGGUCUG [Fam1A.1 aminoacylation ribozyme variant] | 0.803 | 1.25 | 1.11 | 1.08 | 1.03 | 1.01
CUAUUUCAAACAAUCCGUCUG [Fam1A.1 aminoacylation ribozyme variant] | 0.595 | 0.826 | 0.818 | 0.715 | 0.946 | 0.735
CUAUUUCAAACAAUCGGUCGG [Fam1A.1 aminoacylation ribozyme variant] | 1.9 | 0.851 | 0.793 | 0.92 | 2.12 | 0.868
CUAUUUCAAACAAUCGGUCUA [Fam1A.1 aminoacylation ribozyme variant] | 1.15 | 0.713 | 0.634 | 0.571 | 2.12 | 0.588
CUAUUUCAAACAAUCGGUCUG [Fam1A.1 aminoacylation ribozyme variant] | 4.39 | 0.819 | 0.789 | 0.838 | 8.5 | 0.781
CUAUUUCAAACAAUCGGUGUG [Fam1A.1 aminoacylation ribozyme variant] | 0.757 | 0.727 | 1.01 | 0.992 | 0.988 | 0.83
CUAUUUCAAACCAUCGGUCUG [Fam1A.1 aminoacylation ribozyme variant] | 0.708 | 1.03 | 1.09 | 0.94 | 0.809 | 0.988
CUAUUUCAAAGAAUCGGUCUG [Fam1A.1 aminoacylation ribozyme variant] | 1.12 | 0.887 | 0.93 | 0.86 | 1.19 | 0.794
CUAUUUCAAAUAAUCGGUCUG [Fam1A.1 aminoacylation ribozyme variant] | 2.2 | 0.912 | 0.849 | 0.814 | 3.5 | 0.816
CUAUUUCAUACAAUCGGUCUG [Fam1A.1 aminoacylation ribozyme variant] | 0.625 | 0.911 | 0.837 | 0.804 | 0.812 | 0.801
CUAUUUGAAACAAUCGGUCUG [Fam1A.1 aminoacylation ribozyme variant] | 0.463 | 0.803 | 0.815 | 0.779 | 0.697 | 0.707
CUCCACUUCAAGCAAUCGGUC [Fam1B.1 aminoacylation ribozyme variant] | 27.6 | 1.37 | 1.27 | 2.07 | 50.4 | 1.45
CUCCUACAAACAAUCGGUCUG [Fam1A.1 aminoacylation ribozyme variant] | 0.924 | 0.836 | 0.838 | 0.873 | 0.939 | 0.693
CUCCUGCAAACAAUCGGUCUG [Fam1A.1 aminoacylation ribozyme variant] | 0.784 | 0.858 | 1.14 | 0.904 | 4 | 1.06
CUCCUUCAAACAAUCGGUCGG [Fam1A.1 aminoacylation ribozyme variant] | 24.2 | 1.32 | 1.96 | 2.14 | 62.4 | 1.33
CUCCUUCAAACAAUCGGUCUG [Fam1A.1 aminoacylation ribozyme variant] | 32.3 | 1.1 | 1.29 | 2.04 | 59.2 | 1.2
CUCCUUCAAAUAAUCGGUCUG [Fam1A.1 aminoacylation ribozyme variant] | 11.2 | 1.13 | 1.08 | 1.23 | 13.4 | 0.835
CUGCUUCAAAAAAUCGGUCUG [Fam1A.1 aminoacylation ribozyme variant] | 14.2 | 1.35 | 1.25 | 1.59 | 17.9 | 0.976
CUGCUUCAAACAAGCGGUCUG [Fam1A.1 aminoacylation ribozyme variant] | 0.576 | 0.718 | 0.597 | 0.777 | 0.392 | 0.731
CUGCUUCAAACAAUCGCUCUG [Fam1A.1 aminoacylation ribozyme variant] | 3.14 | 0.876 | 0.937 | 0.984 | 4.43 | 0.888
CUGCUUCAAACAAUCGGUAUG [Fam1A.1 aminoacylation ribozyme variant] | 40.2 | 1.29 | 1.56 | 2.5 | 75.4 | 1.33
